Measurements reported in paper PMC9352680, “A comprehensive thermodynamic model for RNA binding by the Saccharomyces cerevisiae Pumilio protein PUF4”.

T1: PUF4 RNA-binding domain (Saccharomyces cerevisiae, UniProt P25339 537-888)
T1 sequence: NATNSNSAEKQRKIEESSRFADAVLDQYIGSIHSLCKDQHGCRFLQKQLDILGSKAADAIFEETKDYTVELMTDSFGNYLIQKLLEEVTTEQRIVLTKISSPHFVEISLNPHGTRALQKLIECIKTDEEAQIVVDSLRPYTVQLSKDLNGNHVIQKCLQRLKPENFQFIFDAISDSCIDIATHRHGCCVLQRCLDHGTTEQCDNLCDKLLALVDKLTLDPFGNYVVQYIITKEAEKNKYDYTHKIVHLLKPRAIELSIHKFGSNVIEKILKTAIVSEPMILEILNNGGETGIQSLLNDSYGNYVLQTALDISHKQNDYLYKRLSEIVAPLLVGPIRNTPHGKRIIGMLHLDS


These binders were tested against T1, PUF4 RNA-binding domain (assay: Mg; RNA-MaP; 20 mM Na-HEPES pH 7.4, 30 mM KOAc, 0.75 mM MgCl2, 0.1% Tween-20, 5% glycerol, 0.1 mg/mL BSA, 2 mM DTT; 25 C; 0.0125-409.6 nM protein). Settings: tags: N-His6-TEV cleaved; C-SNAP kept, Cy3B-labelled; label: tethered on chip by stalled RNA polymerase.
In the case of UCUCUUUGUAAUUCUUCUCUU (ssRNA) [Ic_S1_P4E.1_K4.1_C4.1_H4.1_A4.1_[T5A]_[A6T]_F4.1_[T8C]_[A9T]_T4.1], the Kd is reported as 123 nM.
Work on UCUCUUUGUAAUUGUUCUCUU (ssRNA) [Ic_S1_P4E.1_K4.1_C4.1_H4.1_A4.1_[T5A]_[A6T]_F4.1_[T8G]_[A9T]_T4.1] yielded a Kd of 98.4 nM.
Binder UCUCUUUGUAAUUAGUCUCUU (ssRNA) [Ic_S1_P4E.1_K4.1_C4.1_H4.1_A4.1_[T5A]_[A6T]_F4.1_[T8A]_[A9G]_T4.1] has a Kd of 126 nM.
In the case of UCUCUUUGUAAUUAAUCUCUU (ssRNA) [Ic_S1_P4E.1_K4.1_C4.1_H4.1_A4.1_[T5A]_[A6T]_F4.1_[T8A]_T4.1], the Kd is reported as 216 nM.
For UCUCUUUGUAAUUGGUCUCUU (ssRNA) [Ic_S1_P4E.1_K4.1_C4.1_H4.1_A4.1_[T5A]_[A6T]_F4.1_[T8G]_[A9G]_T4.1], the Kd was 1880 nM.
UCUCUUUGUAAUUGAUCUCUU (ssRNA) [Ic_S1_P4E.1_K4.1_C4.1_H4.1_A4.1_[T5A]_[A6T]_F4.1_[T8G]_T4.1] was tested, and the Kd was 712 nM.
In the case of UCUCUUUGUAAUUCGUCUCUU (ssRNA) [Ic_S1_P4E.1_K4.1_C4.1_H4.1_A4.1_[T5A]_[A6T]_F4.1_[T8C]_[A9G]_T4.1], the Kd is reported as 517 nM.
UCUCUUUGUAAAGCCUCUCUU (ssRNA) [Ic_S1_P4E.1_K4.1_C4.1_H4.1_A4.1_[T5A]_[T7G]_F4.1_[T8C]_[A9C]_T4.1] gave a Kd of 1020 nM.
Binder UCUCUUUGUAAUUACUCUCUU (ssRNA) [Ic_S1_P4E.1_K4.1_C4.1_H4.1_A4.1_[T5A]_[A6T]_F4.1_[T8A]_[A9C]_T4.1] has a Kd of 670 nM.
With UCUCUUUGUUUAUUUCUCUU (ssRNA) [Ib_S1_P3E.1_K3.1_C3.1_H3.1_[A4T]_A3.1_F3.1_[A8T]_T3.1] the Kd was 426 nM.
Binder UCUCUUUGUAAAGCGUCUCUU (ssRNA) [Ic_S1_P4E.1_K4.1_C4.1_H4.1_A4.1_[T5A]_[T7G]_F4.1_[T8C]_[A9G]_T4.1] has a Kd of 2010 nM.
Work on UCUCUUUGUAAAGCUUCUCUU (ssRNA) [Ic_S1_P4E.1_K4.1_C4.1_H4.1_A4.1_[T5A]_[T7G]_F4.1_[T8C]_[A9T]_T4.1] yielded a Kd of 658 nM.
For UCUCUUUGUAAUUGCUCUCUU (ssRNA) [Ic_S1_P4E.1_K4.1_C4.1_H4.1_A4.1_[T5A]_[A6T]_F4.1_[T8G]_[A9C]_T4.1], the Kd was 682 nM.
UCUCUUUGUAAUUAUUCUCUU (ssRNA) [Ic_S1_P4E.1_K4.1_C4.1_H4.1_A4.1_[T5A]_[A6T]_F4.1_[T8A]_[A9T]_T4.1] gave a Kd of 92.4 nM.
UCUCUUUGUAAUAUCUCUCUU (ssRNA) [Ic_S1_P4E.1_K4.1_C4.1_H4.1_A4.1_[T5A]_[A6T]_[T7A]_F4.1_[A9C]_T4.1] gave a Kd of 36 nM.
UCUCUUUGUAAACGCUCUCUU (ssRNA) [Ic_S1_P4E.1_K4.1_C4.1_H4.1_A4.1_[T5A]_[T7C]_F4.1_[T8G]_[A9C]_T4.1] showed a Kd of 833 nM.
UCUCUUUGUUUAUCUCUCUU (ssRNA) [Ib_S1_P3E.1_K3.1_C3.1_H3.1_[A4T]_A3.1_F3.1_[A8C]_T3.1] gave a Kd of 1280 nM.
UCUCUUUGUAAUUUUUCUCUU (ssRNA) [Ic_S1_P4E.1_K4.1_C4.1_H4.1_A4.1_[T5A]_[A6T]_F4.1_[A9T]_T4.1] was tested, and the Kd was 34.7 nM.
In the case of UCUCUUUGUAAAGCAUCUCUU (ssRNA) [Ic_S1_P4E.1_K4.1_C4.1_H4.1_A4.1_[T5A]_[T7G]_F4.1_[T8C]_T4.1], the Kd is reported as 387 nM.
UCUCUUUGUAAUAUAUCUCUU (ssRNA) [Ic_S1_P4E.1_K4.1_C4.1_H4.1_A4.1_[T5A]_[A6T]_[T7A]_F4.1_T4.1] showed a Kd of 2.68 nM.
Work on UCUCUUUGUCUAUUUCUCUU (ssRNA) [Ib_S1_P3E.1_K3.1_C3.1_H3.1_[A4C]_A3.1_F3.1_[A8T]_T3.1] yielded a Kd of 823 nM.
UCUCUUUGUAAUAAUUCUCUU (ssRNA) [Ic_S1_P4E.1_K4.1_C4.1_H4.1_A4.1_[T5A]_[A6T]_[T7A]_F4.1_[T8A]_[A9T]_T4.1] showed a Kd of 172 nM.
With UCUCUUUGUAAACCCUCUCUU (ssRNA) [Ic_S1_P4E.1_K4.1_C4.1_H4.1_A4.1_[T5A]_[T7C]_F4.1_[T8C]_[A9C]_T4.1] the Kd was 1020 nM.
Work on UCUCUUUGUAAACCGUCUCUU (ssRNA) [Ic_S1_P4E.1_K4.1_C4.1_H4.1_A4.1_[T5A]_[T7C]_F4.1_[T8C]_[A9G]_T4.1] yielded a Kd of 951 nM.
UCUCUUUGUAAUAUGUCUCUU (ssRNA) [Ic_S1_P4E.1_K4.1_C4.1_H4.1_A4.1_[T5A]_[A6T]_[T7A]_F4.1_[A9G]_T4.1] showed a Kd of 12.5 nM.
UCUCUUUGUAAAGUCUCUCUU (ssRNA) [Ic_S1_P4E.1_K4.1_C4.1_H4.1_A4.1_[T5A]_[T7G]_F4.1_[A9C]_T4.1] gave a Kd of 406 nM.
UCUCUUUGUAAUUUCUCUCUU (ssRNA) [Ic_S1_P4E.1_K4.1_C4.1_H4.1_A4.1_[T5A]_[A6T]_F4.1_[A9C]_T4.1] showed a Kd of 83.9 nM.
Work on UCUCUUUGUAAUUUGUCUCUU (ssRNA) [Ic_S1_P4E.1_K4.1_C4.1_H4.1_A4.1_[T5A]_[A6T]_F4.1_[A9G]_T4.1] yielded a Kd of 28.5 nM.
